± gives the standard error. For part of these data: Variants at the floor of the assay were thinned out.
B1: glmS ribozyme (parent)
chain: AUAAAAGCGCCAGAACUACAGAAAUGUAGUUGACGAGGAGGAGGUUUAUCGAAUUUUCGGCGGAUGCCUCCAAA

Columns and labels:
Details in all cases: with glucosamine-6-phosphate
glucosamine-6-phosphate [1] = variants of: B1; assay: kcat; higher = faster cleavage; RNA array
Procedure, shortened: (§1)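 Tiles bearing barcoded ribozyme variants, transcribed in situ by E. coli RNA polymerase on sequenced MiSeq chips, were imaged over ~14 h at 37 °C using a hybridised Cy3 probe. Glucosamine-6-phosphate was supplied at 40 μM to 10 mM in HEPES/KCl/Mg(OAc)2 buffer. kobs came from one- or two-exponential decay fits to normalised per-tile medians, and weighted Michaelis–Menten fits then provided kcat and KM.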

glucosamine-6-phosphate [2] = variants of: B1; assay: KM; higher = weaker cofactor use; RNA array
Procedure, shortened: as §1

glucosamine-6-phosphate [3] = variants of: B1; assay: self-cleavage kobs at 40 uM GlcN6P; higher = faster cleavage; RNA array
Procedure, shortened: as §1

glucosamine-6-phosphate [4] = variants of: B1; assay: self-cleavage kobs at 640 uM GlcN6P; higher = faster cleavage; RNA array
Procedure, shortened: as §1

glucosamine-6-phosphate [5] = variants of: B1; assay: self-cleavage kobs at 2500 uM GlcN6P; higher = faster cleavage; RNA array
Procedure, shortened: as §1

glucosamine-6-phosphate [6] = variants of: B1; assay: self-cleavage kobs at 10000 uM GlcN6P; higher = faster cleavage; RNA array
Procedure, shortened: as §1

glucosamine-6-phosphate [7] = variants of: B1; assay: self-cleavage kobs at 160 uM GlcN6P; higher = faster cleavage; RNA array
Procedure, shortened: as §1

| Variant | kcat (glucosamine-6-phosphate [1]) | KM (glucosamine-6-phosphate [2]) | self-cleavage kobs at 40 uM GlcN6P (glucosamine-6-phosphate [3]) | self-cleavage kobs at 640 uM GlcN6P (glucosamine-6-phosphate [4]) | self-cleavage kobs at 2500 uM GlcN6P (glucosamine-6-phosphate [5]) | self-cleavage kobs at 10000 uM GlcN6P (glucosamine-6-phosphate [6]) | self-cleavage kobs at 160 uM GlcN6P (glucosamine-6-phosphate [7]) |
| --- | --- | --- | --- | --- | --- | --- | --- |
| AUAAAAGCGCCAGAACUACAGAAAUGUAGUUGACGAGGAGGAGUUGUAUCGAAUUUUCGGCGGAUGCCUCCAAA [G44U U46G] | 0.000218 ± 4.7e-05 s⁻¹ | 3350 ± 1300 µM | < 1e-05 s⁻¹ | 2.83e-05 ± 1e-05 s⁻¹ | 0.000102 ± 1.5e-05 s⁻¹ | 0.000146 ± 3.9e-05 s⁻¹ | – |
| AUAAAAGCGCCAGAACUACAGAAAUGUAGUUGACGAGGAGGAUGUUUAUCGAUUUUUCGGCGGAUGCCUCCAAA [G43U A53U] | 2.65e-05 ± 2.2e-06 s⁻¹ | 2760 ± 880 µM | – | – | – | – | < 1e-05 s⁻¹ |
| AUAAAAGCGCCAGCACUACAGAAAUGUACUUGACGAGGAGGAGGUUUAUCGAAUUUUCGGCGGAUGCCUCCAAA [A14C G29C] | 0.00095 ± 0.00038 s⁻¹ | – | – | 6.24e-05 ± 1.5e-05 s⁻¹ | 0.000139 ± 2.5e-05 s⁻¹ | 0.000438 ± 6.2e-05 s⁻¹ | – |
| AUAAAAGCGCCAGAACUACAGAAAUGUAGUUGACGAGGUGGAGGUUUAUCGAAUUUUCGGCGGAUGACUCCAAA [A39U C67A] | 0.00981 ± 0.0028 s⁻¹ | 2330 ± 910 µM | 0.000197 ± 2.5e-05 s⁻¹ | 0.0015 ± 0.00027 s⁻¹ | 0.00477 ± 0.0011 s⁻¹ | 0.00878 ± 0.0012 s⁻¹ | 0.000759 ± 0.00012 s⁻¹ |
| AUAAAAGCGCCAGAAGUACAGAAAUGUAGUUGACGAGGAGGAGGUUUAUCGAAAUUUCGGCGGAUGCCUCCAAA [C16G U54A] | 0.00588 ± 0.0013 s⁻¹ | 1860 ± 560 µM | 0.000135 ± 1.8e-05 s⁻¹ | 0.00144 ± 0.00019 s⁻¹ | 0.0024 ± 0.00062 s⁻¹ | 0.00601 ± 0.00089 s⁻¹ | 0.000487 ± 0.00011 s⁻¹ |
| AUAAAAGCGCCAGAACUACAGAAAUGUAUUUGACGAGGAGGAGGUUUAUCGAAUUGUCGGCGGAUGCCUCCAAA [G29U U56G] | 0.00364 ± 0.0012 s⁻¹ | 3840 ± 1700 µM | 6.41e-05 ± 1.1e-05 s⁻¹ | 0.000648 ± 9.8e-05 s⁻¹ | 0.00118 ± 0.0002 s⁻¹ | 0.00283 ± 0.00035 s⁻¹ | 0.000127 ± 1.6e-05 s⁻¹ |
| AUAAAAGCGCCAGAACUACAGAAAUGUAUUUGACGAGGAGGAGGUUUAUCGAAUUUUCGGCGGAUGACUCCAAA [G29U C67A] | 0.000685 ± 0.00017 s⁻¹ | 812 ± 370 µM | 5.58e-05 ± 7.8e-06 s⁻¹ | 0.000276 ± 3.9e-05 s⁻¹ | 0.000437 ± 5.6e-05 s⁻¹ | 0.000787 ± 8.4e-05 s⁻¹ | 9.85e-05 ± 1.4e-05 s⁻¹ |
| AUAAAAGCGUCAGAACUACAGAAAUGUAGUUGACGAGGAGGAGGUUUAUCGAAUUUUCGGCGGAUACCUCCAAA [C10U G66A] | 1.5e-05 ± 2.3e-06 s⁻¹ | – | – | – | – | – | – |
| AUAAAAGCGCCAGAACUACAGAAAUGUAGUUGACGAGGUGGAGGUUGAUCGAAUUUUCGGCGGAUGCCUCCAAA [A39U U47G] | 0.00519 ± 0.00052 s⁻¹ | 1940 ± 270 µM | 0.000119 ± 1.7e-05 s⁻¹ | 0.00132 ± 0.00018 s⁻¹ | 0.00285 ± 0.00052 s⁻¹ | 0.00439 ± 0.00057 s⁻¹ | 0.000358 ± 4.8e-05 s⁻¹ |
| AUAAAAGCGCCAAAACUACAGAAAUGUAGUUGACGAGGGGGAGGUUUAUCGAAUUUUCGGGGGAUGCCUACAAA [G13A A39G C61G C70A] | < 1e-05 s⁻¹ | – | – | – | – | – | – |
| AUAAAAGCGCCAGAACUACAGAAAUGUAGUUGACGAGGAGGAGGUUCAUUGAAUUUUCGGCGGAUGCCUCCAAA [U47C C50U] | 4.46e-05 ± 3.5e-07 s⁻¹ | 1670 ± 52 µM | – | – | 2.69e-05 ± 1.3e-05 s⁻¹ | 3.82e-05 ± 1.1e-05 s⁻¹ | – |
| AUAAAAGCGCCACAACUACAGAAAUGUAGUUGACGAGGAGGAGGUUUAUCGAAUUGUCGGCGGAUGCCUCCAAA [G13C U56G] | 0.000107 ± 9.4e-06 s⁻¹ | 2860 ± 820 µM | – | – | 5.37e-05 ± 1.7e-05 s⁻¹ | 8.26e-05 ± 1.2e-05 s⁻¹ | – |
| AUAAAAGCGCCAGAACUACAGAAAUGUAGUUGACGAUGAGGAGGUUUAUCGAAUUUUCGGCGGAUGCCUCAAAA [G37U C71A] | 1.95e-05 ± 4.6e-06 s⁻¹ | – | – | – | – | – | – |
| AUAAAAGCGCCAGACCUACAGAAAUGUAGUUGACGAGGAGGAGGUUUAUCGAAUUUUCGGCGGAUGUCUCCAAA [A15C C67U] | 0.00143 ± 0.00033 s⁻¹ | 881 ± 330 µM | 7.54e-05 ± 8.7e-06 s⁻¹ | 0.00045 ± 6.9e-05 s⁻¹ | 0.00177 ± 0.00038 s⁻¹ | 0.00139 ± 0.00015 s⁻¹ | 0.000198 ± 6.2e-05 s⁻¹ |
| AUAAAAGCGCCAGAACUACAGAAAUGUAGUUGACGAGGAGGAGGUGUAUCGAAUUUUCGGCGGAGGCCUCCAAA [U46G U65G] | 0.00226 ± 0.00027 s⁻¹ | 2130 ± 380 µM | 4.1e-05 ± 8.8e-06 s⁻¹ | 0.000467 ± 7.5e-05 s⁻¹ | 0.00124 ± 0.00017 s⁻¹ | 0.0019 ± 0.0003 s⁻¹ | 0.000189 ± 3.4e-05 s⁻¹ |
| AUAAAAGCGCCAGAACUACAGAAAUGUAGUUGACGAGGAGGAGGUUAAUCGAAUUUUCGGCGGACGCCUCCAAA [U47A U65C] | 0.000833 ± 0.00017 s⁻¹ | 2410 ± 980 µM | – | 0.000158 ± 3.6e-05 s⁻¹ | 0.000533 ± 0.00012 s⁻¹ | 0.000645 ± 0.00011 s⁻¹ | – |

Reference: the supplement of paper PMC7125110
